Results published in US20250339501A1, “COMPOSITIONS AND METHODS FOR TREATING METABOLIC DISEASE” (The Regents of the University of California, priority 2021, published 2025).
Entries after “also recorded” stand apart in the source; their conditions may differ.

What was measured:
[1] = Intravital imaging of IRDye 800CW-labeled Dj1 after tail-vein injection; format: in vivo, mouse; details: WT mice
Description: Recombinant mouse Dj1 protein (NBP2-59523, Novus) were labeled with near-infrared dyes using IRDye 800CW protein labeling kit-Low MW (Li-COR Biosciences) as described in the manufacturer's instructions. 10 μg of labeled Dj1 protein was injected into wild-type C57BL/6J mouse through the tail vein. The mice were imaged at the indicated time using an IVIS Spectrum (PerkinElmer). For tissue analysis, recipient mice were euthanized by cervical dislocation, and tissues were then dissected and imaged. Fluorescence was detected using excitation and emission filters at 745 nm and 800 nm, respectively.
Myokines contribute to whole-body metabolism by directly signaling to distant organs (15-18). To determine which organs Dj1 targets, WT mice were tail-vein injected with a recombinant Dj1 (rDj1) protein labeled with the near-infrared fluorescent dye IRDye 800CW, and the fluorescent signals were tracked using an optical imaging system (FIGS. 3I, 3J). A robust fluorescent signal could be detected within 5 minutes post-injection. […] Considering that the reagents injected through tail-vein often nonspecifically target the liver, fluorescent-labeled rDj1 was used to determine whether Dj1 could bind to the plasma membrane of liver cells. rDj1 was labeled with Alex 488 and added into the medium of mouse liver cells (AML12 cells) at the indicated time.

[2] = test system: HepG2 cells; experiment: Reactive oxygen species in HepG2 cells; format: cell-based, human; details: baseline and TNFα-induced
From the text: A wide variety of mechanisms activate the JNK pathway. […] Moreover, ASK1 is activated by various stresses, including oxidative stress, ER stress, calcium overload, and receptor-mediated inflammatory signals such as TNFα and lipopolysaccharide (LPS) (26,27). rDj1 administration suppressed both baseline and TNFα-induced ROS levels in HepG2 cells, which may contribute to reducing liver inflammation (FIG. 6F).

[3] = test system: HFD-fed mice; experiment: Indirect calorimetry in HFD-fed mice; format: in vivo, mouse
Description: Elevated AMPK signaling and reduced lipid content in the liver led to the hypothesis that rDj1 might activate the whole-body energy metabolism of mouse. Therefore, the metabolic rate was determined in HFD-fed mice by indirect calorimetry.

[4] = test system: AMPK signaling; experiment: RNA sequencing analysis of HepG2 cells; format: cell-based, human
[5] = test system: JNK; experiment: TNFα-induced JNK phosphorylation in HepG2 cells; format: cell-based; details: human HepG2 liver cells
From the text: As described above, Dj1 administration stimulates AMPK phosphorylation in the liver cells. However, elevated AMPK phosphorylation in vivo was not observed (data not shown). Numerous studies have reported that the c-Jun N terminal kinase (JNK) is critical to the development of steatosis and chronic liver injury in NAFLD (22-25). […] However, not all MAPK pathways were activated. For example, phosphorylation of p42 was not altered by tDj1 treatment (FIG. 6O). Both rDj1 and tDj1 suppressed TNFα and Anisomycin-induced JNK (p54 and p46) phosphorylation in human HepG2 and mouse AML12 liver cells, respectively (FIGS. 6C-6D).

B1: rDj1: full-length recombinant Dj1 protein; mouse protein (Novus, NBP2-59523) injected in mice, human protein used in HepG2 cells (protein, UniProt Q99LX0 1-189, looked up)
chain: MASKRALVILAKGAEEMETVIPVDVMRRAGIKVTVAGLAGKDPVQCSRDVMICPDTSLEDAKTQGPYDVVVLPGGNLGAQNLSESPMVKEILKEQESRKGLIAAICAGPTALLAHEVGFGCKVTTHPLAKDKMMNGSHYSYSESRVEKDGLILTSRGPGTSFEFALAIVEALVGKDMANQVKAPLVLKD
modifications: full-length
notes: full-length recombinant Dj1 protein; mouse protein (Novus, NBP2-59523) injected in mice, human protein used in HepG2 cells
organs in which most fluorescent signals accumulated ([1]; 4 hours post-injection, tail-vein): accumulated in the liver, kidney, and urine | time until robust fluorescent signal detected post-injection ([1]; IRDye 800CW-labeled rDj1, tail-vein): ≤ 5 min | ROS levels [2]: suppressed | energy expenditure (EE) [3]: elevated | oxygen consumption (VO2) [3]: elevated | respiratory exchange ratio (RER) [3]: reducing | AMPK signaling (RNA sequencing analysis) [4]: upregulated | TNFα-induced JNK (p54 and p46) phosphorylation [5]: suppressed; also recorded: inhibits
